We go through two molecules from patent US20230365705A1 (DYNAMICURE BIOTECHNOLOGY, published 2023).

The target of assay [1] is T1, Human CD93 recombinant protein (Sino Biological Inc, Catalog #12589-H08H) (human, UniProt Q9NPY3 22-580).
T1 construct: Biotinylated (EZ-LINK NHS-PEG4 biotin) in the BLI assays; also called hCD93; His-tagged human CD93
T1 sequence (looked up): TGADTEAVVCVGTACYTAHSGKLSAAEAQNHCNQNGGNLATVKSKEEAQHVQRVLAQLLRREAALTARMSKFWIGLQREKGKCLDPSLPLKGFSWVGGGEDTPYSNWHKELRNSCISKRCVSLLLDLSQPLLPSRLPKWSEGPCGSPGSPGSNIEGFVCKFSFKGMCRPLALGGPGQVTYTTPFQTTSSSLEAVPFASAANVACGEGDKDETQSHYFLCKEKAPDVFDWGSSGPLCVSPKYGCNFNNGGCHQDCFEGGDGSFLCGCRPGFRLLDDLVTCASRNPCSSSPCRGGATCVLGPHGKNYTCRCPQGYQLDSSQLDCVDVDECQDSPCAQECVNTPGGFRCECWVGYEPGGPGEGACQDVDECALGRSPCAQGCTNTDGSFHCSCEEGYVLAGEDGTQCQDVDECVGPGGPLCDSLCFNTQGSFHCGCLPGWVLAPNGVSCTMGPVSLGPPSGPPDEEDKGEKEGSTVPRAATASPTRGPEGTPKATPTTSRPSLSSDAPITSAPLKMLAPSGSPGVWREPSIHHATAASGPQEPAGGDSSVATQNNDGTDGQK
Nature of the assay: BLI (Octet QKe), biotinylated CD93 on streptavidin biosensors; table under the hCD93 panels. Here is the method:
The binding affinity of anti-CD93 antibodies were determined with bio-layer interferometry using Octet QKe (Fortebio). Human CD93 recombinant protein (Sino Biological Inc, Catalog #12589-H08H) or cynomolgus CD93 protein (made in-house) were biotinylated using EZ-LINK NHS-PEG4 biotin (Thermo Fisher Scientific). Streptavidin biosensors (Fortebio) were used to load biotinylated CD93 protein (300 seconds at 5 μg/ml). The baseline was stabilized for 60 seconds in a 1× kinetics buffer (Fortebio) before serially diluted anti-CD93 antibodies were allowed to associate for 300 seconds with captured protein. The sensors were dissociated in a 1× kinetics buffer for 600 seconds.

The target of assay [2] is T2, Human CD93 on cells (human CD93 expressing CHO cells; HUVEC, U937 and KG1a cells) (human, UniProt Q9NPY3 22-652).
T2 construct: whole, on cells; also called hCD93 expressing CHO cells; hCD93 CHO cells
T2 sequence (looked up): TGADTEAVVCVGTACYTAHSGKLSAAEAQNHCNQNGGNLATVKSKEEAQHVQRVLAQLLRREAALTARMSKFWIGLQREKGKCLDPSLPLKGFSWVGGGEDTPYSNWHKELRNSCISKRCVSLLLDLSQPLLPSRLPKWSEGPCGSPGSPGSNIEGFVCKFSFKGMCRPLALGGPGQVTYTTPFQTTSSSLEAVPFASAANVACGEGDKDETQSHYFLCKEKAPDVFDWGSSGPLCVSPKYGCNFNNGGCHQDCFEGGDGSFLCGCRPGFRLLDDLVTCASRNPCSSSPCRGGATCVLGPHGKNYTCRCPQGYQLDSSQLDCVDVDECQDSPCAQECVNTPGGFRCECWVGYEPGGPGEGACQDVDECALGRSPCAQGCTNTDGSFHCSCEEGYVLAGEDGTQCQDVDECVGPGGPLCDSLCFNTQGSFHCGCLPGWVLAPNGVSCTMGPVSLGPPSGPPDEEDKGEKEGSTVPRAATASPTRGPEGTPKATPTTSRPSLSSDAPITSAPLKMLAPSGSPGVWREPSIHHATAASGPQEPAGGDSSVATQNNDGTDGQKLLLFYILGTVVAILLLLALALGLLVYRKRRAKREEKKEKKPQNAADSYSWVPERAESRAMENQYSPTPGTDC
As to the kind of experiment: flow cytometry blocking assay, CHO-hCD93 cells; blocked ligand hMMRN2 495-674 at 0.1 ug/ml; antibody stored 2 weeks at 40 C. The method, then:
Then the cells were incubated with hMMRN2₄₉₅₋₆₇₄ at 0.1 μg/ml. […] After washing with FACS buffer twice, the samples were analyzed, and data acquired in NovoCyte Flow. Recombinant his tagged hMMRN2₄₉₅₋₆₇₄ was produced internally in E. Coli following routine procedure.

B1: 16E4 (hybridoma) (antibody, IgG2a, V domains shown)
VH: QVQLQQPGAELVKPGASVKLSCKASGYTFTSYWMHWVKQRPGQGLEWIGEIDPSASYTYYNQKFKGKATLTVDKSSSTAYMQLSSLTSEDSAVYYCARSVYYGNKYFDVWGAGTTVTVSS
VL: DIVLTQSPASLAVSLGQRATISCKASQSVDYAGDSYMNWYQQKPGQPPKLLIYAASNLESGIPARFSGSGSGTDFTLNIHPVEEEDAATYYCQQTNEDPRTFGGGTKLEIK
notes: also called 16E4 mAb; 16E4 mIgG2a
Broadly, the Kd is a measure of binding affinity in units of concentration. Broadly, the koff is a measure of how fast the partners let go of each other. Usually kon stands for a measure of how fast the partners come together. As to B1, in assay [1], the dissociation constant (Kd) is 447 pM, the koff was 0.000429 s⁻¹ and the on-rate (kon) came to 960000 M⁻¹ s⁻¹.

B2: h7F3 (humanized 7F3, VH3+VL3) (antibody, human IgG1, V domains shown)
VH: QVQLVQSGAEVKKPGASVKVSCKASGYTFTDYEMHWVRQAPGQGLEWMGGIDPETGDTAYNQNFKGRVTMTTDTSTSTAYMELRSLTSDDTAVYYCTNYGNLYYYAMDYWGQGTSVTVSS
VL: EIVLTQSPSSLSASVGDRVTITCRASSSVSSSYLHWYQQKPGKAPKLLIYSTSNLAFGVPSRFSGSGSGTSYTFTISSLQPEDIATYYCQQYSGYPLTFGSGTKLEIK
notes: also called humanized 7F3-hIgG1
The term IC50 denotes the point on the concentration scale where inhibition reaches its midpoint. Low readings indicate greater potency in that assay, high ones weaker potency in that assay. In turn, B2 gave an IC50 in assay [2] of 133 pM.
